Experimental data taken from article PMC6360386 (2018).

B1: Flag and GFP-fused PKN3 WT (mouse) [mouse] / p130Cas, endogenous in MDA-MB-231 cells [human (endogenous in MDA-MB-231)] (parent complex)
chain 1: MEHRKPGTGQRAPKDEKEMVRRAIQKELKIKEGMENMRRVATDRRHLGHVQQLLRASNRRLEQLHGELRELHAQVLLPASAEPVTSEPQPRAEQSRARLSEALHRQLQVELKVKQGAENMIHTCASGTPKERKLLAAAQQMLKDSQLKVALLRMKISSLESSGSPEPGPDLLAEELQHRLRVEAAVAAGAKNVVKLLGGQRMQDRKALAEAQAQLQESSQKLDLLRLALELLLERLPPTHSLRSRVTQELWMAMLGNPQPLGTLVKPIALTGTLQVRLLGCKDLLVAVPGRSPMAVLAGSPSESWLRTRSRQQRGGGELASEVLAVLKVDNRVVGQTGWGLVAEKSWDQSFIISLDRARELEIGVHWRDWRQLCGVAFLKLEDFLDNACHQLSLSLVPQGRLFAQVTFCEPVIERRPRLQRQRCIFSKRRGRDFMRASQMNLSMAAWGRLVMSLLPPCSSPNTASPPKGRPSTAVCGTPSAASPSNFLPMKTLSKEDTKPPPKPPRLYLQEPAPGTPCTKRPHMDPRPAVVPALAALSTRKPPRLQDFRCLAVLGRGHFGKVLLVQYKGTGKYYAIKALKKQEVLGRDEIDSLYCEKRILETVGRTGHPFLLSLLACLQTSSHACFVTEFLPGGDLMAQIHEDVFPEPQACFYLACVVLGLQFLHEKRIIYRDLKLDNLLLDAQGFLKIADFGLCKEGIGFGDRTSTFCGTPEFLAPEVLTQEAYTRAVDWWGLGVLLYEMLVGECPFPGDTEEEVFECIVSADVPCPHFLSVQGLELIQKLLQKSPEKRLGAGERDAEEIKVQPFFRTTNWQALLARTVQPPFVPTLCGPADLRYFEGEFTSLPPTLTPPVSQSSLTARQQAAFRDFDFVSEQFLES
chain 2: MNHLNVLAKALYDNVAESPDELSFRKGDIMTVLEQDTQGLDGWWLCSLHGRQGIVPGNRLKILVGMYDKKPAGPGPGPPATPAQPQPGLHAPAPPASQYTPMLPNTYQPQPDSVYLVPTPSKAQQGLYQVPGPSPQFQSPPAKQTSTFSKQTPHHPFPSPATDLYQVPPGPGGPAQDIYQVPPSAGMGHDIYQVPPSMDTRSWEGTKPPAKVVVPTRVGQGYVYEAAQPEQDEYDIPRHLLAPGPQDIYDVPPVRGLLPSQYGQEVYDTPPMAVKGPNGRDPLLEVYDVPPSVEKGLPPSNHHAVYDVPPSVSKDVPDGPLLREETYDVPPAFAKAKPFDPARTPLVLAAPPPDSPPAEDVYDVPPPAPDLYDVPPGLRRPGPGTLYDVPRERVLPPEVADGGVVDSGVYAVPPPAEREAPAEGKRLSASSTGSTRSSQSASSLEVAGPGREPLELEVAVEALARLQQGVSATVAHLLDLAGSAGATGSWRSPSEPQEPLVQDLQAAVAAVQSAVHELLEFARSAVGNAAHTSDRALHAKLSRQLQKMEDVHQTLVAHGQALDAGRGGSGATLEDLDRLVACSRAVPEDAKQLASFLHGNASLLFRRTKATAPGPEGGGTLHPNPTDKTSSIQSRPLPSPPKFTSQDSPDGQYENSEGGWMEDYDYVHLQGKEEFEKTQKELLEKGSITRQGKSQLELQQLKQFERLEQEVSRPIDHDLANWTPAQPLAPGRTGGLGPSDRQLLLFYLEQCEANLTTLTNAVDAFFTAVATNQPPKIFVAHSKFVILSAHKLVFIGDTLSRQAKAADVRSQVTHYSNLLCDLLRGIVATTKAAALQYPSPSAAQDMVERVKELGHSTQQFRRVLGQLAAA

Variants of: B1
Assay: co-immunoprecipitation (IP anti-Flag sepharose, IB anti-p130Cas); MDA-MB-231 cells, transient transfection; parent: 1

Row | ratio to parent | Variant
1 | 0.2 | chain 1 P501A, chain 1 K503S, chain 1 P504A
2 | 0.8 | chain 1 K577E
